Tests used:
[1] = target: T1, hOX40L added as soluble protein in cell assays (human, UniProt P23510 51-183, limits assumed); assay: cell-based or functional assay
T1 sequence: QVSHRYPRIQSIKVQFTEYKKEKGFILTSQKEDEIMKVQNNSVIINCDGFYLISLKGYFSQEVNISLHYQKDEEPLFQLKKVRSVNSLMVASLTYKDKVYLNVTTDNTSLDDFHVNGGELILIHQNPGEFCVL

[2] = target: T2, Recombinant Human OX40L Protein, His Tag (Acro Cat. IL3-H52H4) (human, UniProt P23510 51-183); assay: SPR (Biacore 8K), antibody captured, human OX40L injected, 1:1 fit
T2 construct: Bought His-tagged protein; also called hOX40L
T2 sequence: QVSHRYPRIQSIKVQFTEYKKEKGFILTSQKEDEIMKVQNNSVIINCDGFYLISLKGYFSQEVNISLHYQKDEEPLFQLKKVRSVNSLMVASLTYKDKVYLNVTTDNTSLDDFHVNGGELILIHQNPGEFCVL
Experimental: (§1) Samples were injected in a multi-cycle manner over freshly captured mAb, by regenerating the capture surfaces with injection of glycine pH 1.5 for 30 sec at a flow rate of 30 μL/min. The data was processed and analyzed with Biacore Insight Evaluation Software Version 2.0.15.12933 (GE Healthcare) as follows. […] The responses from the two buffer blank injections were then subtracted from the reference subtracted data (2-1) to yield double-referenced data, which were fit to an 1:1 binding model to determine the apparent association (ka) and dissociation rate constants (kd). Their ratio provided the apparent equilibrium dissociation constant or affinity constant (KD=kd/ka).

biotinylated hOX40L = target: T3, biotinylated hOX40L (human, UniProt P23510 51-183, limits assumed, biotinylated (sites not given)); assay: blocking ELISA: biotinylated hOX40L preincubated with titrated antibody, added to coated hOX40-Fc, Extravidin-HRP
T3 construct: construct not described
T3 sequence: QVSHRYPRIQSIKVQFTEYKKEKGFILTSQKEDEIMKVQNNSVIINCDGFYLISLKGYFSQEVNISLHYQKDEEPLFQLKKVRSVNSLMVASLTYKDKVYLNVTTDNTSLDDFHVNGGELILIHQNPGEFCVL

[3] = target: T4, Recombinant Cynomolgus OX40L Protein, His Tag (SINO BIOLOGICAL, Cat. 11057-C07H) (cynomolgus, UniProt G7NVH7 51-183); assay: SPR (Biacore 8K), antibody captured, cynomolgus OX40L injected, 1:1 fit
T4 construct: Bought protein
T4 sequence: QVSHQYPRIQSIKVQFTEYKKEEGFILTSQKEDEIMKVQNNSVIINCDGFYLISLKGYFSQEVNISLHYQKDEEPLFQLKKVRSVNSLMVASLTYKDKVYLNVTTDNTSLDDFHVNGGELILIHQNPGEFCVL
Experimental: as §1

[4] = target: T5, hOX40L on hOX40L-expressing CHO cells (human, UniProt P23510 1-183); assay: flow cytometry on hOX40L-expressing CHO cells, gMFI, nonlinear regression
T5 construct: also called cell surface OX40L
T5 sequence: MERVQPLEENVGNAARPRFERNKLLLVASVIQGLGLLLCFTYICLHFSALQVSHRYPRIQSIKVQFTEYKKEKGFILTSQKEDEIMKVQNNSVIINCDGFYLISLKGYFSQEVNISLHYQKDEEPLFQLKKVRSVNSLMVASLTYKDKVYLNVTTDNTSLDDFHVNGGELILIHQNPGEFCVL
Experimental: Nonlinear regression was performed on geometric mean fluorescence intensity (gMFI) values to determine EC50 values (FIG. 1, TABLE 8).

human FcRn = human FcRn (human, UniProt P55899 24-297; P61769 21-119); assay: SPR (Biacore 8K+), antibody captured by anti-human kappa, human FcRn injected, pH 5.8; pH 5.8
Experimental: (§2) Briefly, a CM5 Series S sensor chip functionalized with anti-human kappa antibody was used to capture antibodies at 5 μg/mL. […] The chip was regenerated with 10 mM glycine pH 1.5 and 10 mM NaOH between runs.

C1q = target: T6, C1q; assay: SPR (Biacore 8K+), antibody captured by anti-human IgG Fc, C1q injected at 25 nM, mean response
T6 construct: also called Clq
Experimental: Briefly, a CM5 Series S sensor chip functionalized with anti-human IgG Fc antibody was used to capture antibodies at 5 μg/mL. […] The chip was regenerated with 10 mM glycine pH 1.5 and 10 mM NaOH between runs.

cynomolgus FcRn = cynomolgus FcRn (cynomolgus, UniProt Q8SPV9 24-297; Q8SPW0 21-119); assay: SPR (Biacore 8K+), antibody captured by anti-human kappa, cynomolgus FcRn injected, pH 5.8; pH 5.8
Experimental: as §2

cynomolgus FcRn, sequence (Q8SPV9 24-297 limits assumed, chain 1 of 2): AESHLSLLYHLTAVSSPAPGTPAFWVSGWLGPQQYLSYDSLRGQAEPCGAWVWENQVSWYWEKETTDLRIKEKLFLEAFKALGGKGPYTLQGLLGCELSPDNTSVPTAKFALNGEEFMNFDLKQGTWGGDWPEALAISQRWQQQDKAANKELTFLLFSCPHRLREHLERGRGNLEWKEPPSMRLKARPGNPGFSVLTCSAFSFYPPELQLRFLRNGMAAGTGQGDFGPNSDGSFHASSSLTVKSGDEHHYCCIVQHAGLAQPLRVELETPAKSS
cynomolgus FcRn, sequence (Q8SPW0 21-119 limits assumed, chain 2 of 2): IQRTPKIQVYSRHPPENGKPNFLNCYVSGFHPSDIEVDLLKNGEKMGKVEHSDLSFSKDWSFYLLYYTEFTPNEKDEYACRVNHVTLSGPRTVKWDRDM
human FcRn, sequence (P55899 24-297 limits assumed, form in doubt, chain 1 of 2): as the sequence (Q8SPV9 24-297 limits assumed, chain 1 of 2) above, with D39N, Q44E, S99G, G189S, N190S, M217L, T269S counted along it
human FcRn, sequence (P61769 21-119 limits assumed, form in doubt, chain 2 of 2): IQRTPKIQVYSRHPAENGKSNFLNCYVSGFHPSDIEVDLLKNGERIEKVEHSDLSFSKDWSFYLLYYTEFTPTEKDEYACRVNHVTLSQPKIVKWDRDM
T6 sequence (P02745 23-245, chain 1 of 3): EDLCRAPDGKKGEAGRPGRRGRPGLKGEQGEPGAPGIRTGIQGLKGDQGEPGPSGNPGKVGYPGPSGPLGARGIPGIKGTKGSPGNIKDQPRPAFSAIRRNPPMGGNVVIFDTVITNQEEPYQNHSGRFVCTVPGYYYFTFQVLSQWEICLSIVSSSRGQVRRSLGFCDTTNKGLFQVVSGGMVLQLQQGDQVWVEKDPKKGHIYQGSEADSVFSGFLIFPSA
T6 sequence (P02746 28-253, chain 2 of 3, further chain): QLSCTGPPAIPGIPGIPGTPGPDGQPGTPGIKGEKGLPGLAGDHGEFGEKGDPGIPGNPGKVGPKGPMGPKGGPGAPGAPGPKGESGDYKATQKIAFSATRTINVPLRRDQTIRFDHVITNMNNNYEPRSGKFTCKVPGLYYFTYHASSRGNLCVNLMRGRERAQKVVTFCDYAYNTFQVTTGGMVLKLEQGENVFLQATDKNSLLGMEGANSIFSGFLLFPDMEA
T6 sequence (P02747 29-245, chain 3 of 3, further chain): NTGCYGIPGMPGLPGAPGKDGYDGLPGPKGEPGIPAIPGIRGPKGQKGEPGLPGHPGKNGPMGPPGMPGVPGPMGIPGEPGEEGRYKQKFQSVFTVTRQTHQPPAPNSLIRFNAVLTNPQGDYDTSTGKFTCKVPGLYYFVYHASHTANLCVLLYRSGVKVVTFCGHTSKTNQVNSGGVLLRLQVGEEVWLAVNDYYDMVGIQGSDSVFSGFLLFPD

Binder | IC50, luminescence (RLU), hOX40 reporter cells with 50 ng/mL hOX40L [1] | Kd [2] | koff [2] | kon [2] | IC50 (biotinylated hOX40L) | Kd [3] | koff [3] | kon [3] | EC50 [4] | Kd (human FcRn) | koff (human FcRn) | kon (human FcRn) | RU at 25 nM C1q (C1q) | Kd (cynomolgus FcRn) | koff (cynomolgus FcRn) | kon (cynomolgus FcRn)
anti-hOX40L antibody clone 127 (antibody, human IgG1, kappa, L234A L235A, V domains shown) VH: EVQLVESGGGFVKPGGSLRLSCAASGFTFSNAWMSWVRQAPGKGLEWVGRIKSNSYGGTTDYAAPAIGRFTISRDGSKSTLYLQMNSLKTEDTAVYYCTTDHPKFGFDFWGQGTLVTVSS VL: not shown | 1.72 nM | 1.11 nM | 0.00021 s⁻¹ | 189000 M⁻¹ s⁻¹ |  |  |  |  |  |  |  |  |  |  |  | 
positive control based on the sequences of the anti-hOX40L antibody amlitelimab (antibody, IgG4, V domains shown, also called Pos; Ctrl) VH: EVQLVESGGGLVQPGGSLRLSCAASGFTFSNYAMNWVRQAPGKGLEWVSTISGSGGATRYADSVKGRFTISRDNSRNTVYLQMNSLRVEDTAVFYCTKDRLIMATVRGPYYYGMDVWGQGTTVTVSS VL: DIQMTQSPSSLSASVGDRVTITCRASQSISSYLNWYQQKPGKAPNLLIYAASSLQSGVPSRFSGSGSETDFTLTISSLQPEDFATYYCQQSHSVSFTFGPGTKVDIK |  |  |  |  | 0.62 nM | 0.0455 nM | 0.000119 s⁻¹ | 2.62e+06 M⁻¹ s⁻¹ | 3.49 nM |  |  |  |  |  |  | 
anti-hOX40L antibody clone 122 (antibody, human IgG1, kappa, L234A L235A, V domains shown) VH: EVQLVESGGGLVQPGGSLRLSCAASGFTFSNYWMHWVRQAPGKGLVWVSRINSDGISTRYADSVKGRFTISRDNAKNTLYLQMKSLRAEDTAVYYCVRDFQLELPDYWGQGTLVTVSS VL: DIQMTQSPSSLSASVGDRVTITCRASQGIRDDLAWYQQKAGKAPKRLIFAASSLQSGVPSRFSGSGSGTEFTLTISGLQPEDFANYYCLQHKSNPFTFGQGTKLEIKR |  | < 0.00662 nM | < 1e-06 s⁻¹ | 151000 M⁻¹ s⁻¹ | 1.57 nM |  |  |  |  |  |  |  |  |  |  | 
anti-hOX40L antibody clone 328 (antibody, human IgG1, kappa, L234A L235A) heavy: QVQLQESGPGLVKPSQTLSLTCTVSGGSISSGGYYWSWIRQYPGKGLEWIGHIYYSGSTKYNPSLKSRLTISVDTSKNQFSLKLSSVTAADTAVYYCARDNWGSGWYYMDVWGKGTTVTVSSASTKGPSVFPLAPSSKSTSGGTAALGCLVKDYFPEPVTVSWNSGALTSGVHTFPAVLQSSGLYSLSSVVTVPSSSLGTQTYICNVNHKPSNTKVDKKVEPKSCDKTHTCPPCPAPEAAGGPSVFLFPPKPKDTLYITREPEVTCVVVDVSHEDPEVKFNWYVDGVEVHNAKTKPREEQYNSTYRVVSVLTVLHQDWLNGKEYKCKVSNKALPAPIEKTISKAKGQPREPQVYTLPPSRDELTKNQVSLTCLVKGFYPSDIAVEWESNGQPENNYKTTPPVLDSDGSFFLYSKLTVDKSRWQQGNVFSCSVMHEALHNHYTQKSLSLSPG light: EIVLTQSPATLSLSPGERATLSCRASQSVSNYFAWYRQKPGQAPRLLIYDASNRATGIPARFSGSGSGTDFTLTISSLEPEDFAVYYCQHRSNWPLTFGGGTKVEIKRTVAAPSVFIFPPSDEQLKSGTASVVCLLNNFYPREAKVQWKVDNALQSGNSQESVTEQDSKDSTYSLSSTLTLSKADYEKHKVYACEVTHQGLSSPVTKSFNRGEC | 1.9 nM | 0.136 nM | 0.000271 s⁻¹ | 2e+06 M⁻¹ s⁻¹ | 5.99 nM | 0.0316 nM | 0.000152 s⁻¹ | 4.8e+06 M⁻¹ s⁻¹ |  | 137 nM | 0.046 s⁻¹ | 336000 M⁻¹ s⁻¹ | 0.2 RU | 116 nM | 0.0462 s⁻¹ | 399000 M⁻¹ s⁻¹
anti-hOX40L antibody clone 128 (antibody, human IgG1, kappa, L234A L235A, V domains shown) VH: EVQLVESGGGLVTPGGSLRISCAASGFTFNNAWMTWVRQAPGKGLEWVGRIKSISYGGTTDSAAPVKGRFTISRDDSENTLYLQMSSLKTEDTAVYYCSTGSVWKYGGSLDFWGQGTLVTVSS VL: DIQMTQSPSSLSASVGDRVTFTCRASQGISRFLNWYQQKPGKAPKLLIYAASTLQNGVPSRFSGSGSGTDFTLTISSLQPEDFATYFCQQTYSTPLTFGGGTKVEIYR |  | < 0.00893 nM | < 1e-06 s⁻¹ | 112000 M⁻¹ s⁻¹ | 7.52 nM |  |  |  |  |  |  |  |  |  |  | 
anti-hOX40L antibody clone 118 (antibody, human IgG1, kappa, L234A L235A, V domains shown) VH: EVQVVESGGGLIQPGGSLRISCAASGFPVSSNYMSWVRQAPGKGLDWVSIIYSRDSTHYADSVKGRFTMSRDNSKNTVYLQMNSLRAEDTAVYYCAGTLTYYYGAGSDYWGQGTLVTVSS VL: DIQMTQSPSSLSASVGDRVTITCRASQGIRNDLGWYQQKPGKAPKRLIYAASSLQSGVPSRFSGSGSGTEFTLTISSLQPEDFATYYCLQHNSYPWSFGQGTKVEIKR | 0.912 nM | 0.182 nM | 2.82e-05 s⁻¹ | 155000 M⁻¹ s⁻¹ |  |  |  |  |  |  |  |  |  |  |  | 
anti-hOX40L antibody clone 130 (antibody, human IgG1, kappa, L234A L235A, V domains shown) VH: EVQLVESGGGLVKPGGSLRLSCAASGFTFSYAWMSWVRQAPGRGLEWVGRIKSETDGGTTDYAAPVKGRFTISRDHSENTLFLQMNSLKTEDTAVYYCTTGSSWNVYFFDFWGQGTLVTVSS VL: DIQMTQSPSSLSASVGDSVTITCRASQSISNYLNWYHQKPGKAPKLLIYAAYRLQTGVPSRFSGSGSGTDFTLTISSLQPEDFATYYCQQSYSSPLTFGGGTKVEIKR |  | 0.0873 nM | 1.14e-05 s⁻¹ | 131000 M⁻¹ s⁻¹ | 13 nM |  |  |  |  |  |  |  |  |  |  | 

— US20260217843A1 (APOGEE THERAPEUTICS, published 2026)
